Experimental findings from patent US20240301049A1 (Ablynx, published 2024) are described below.

“And” between values parts separate entries of the source, which are not always exact repeats. Identical values can stand only once.

One assay addresses T1, human serum albumin (human, UniProt P02768 25-609).
T1 construct: also called HSA; human SA
Kind of assay: in-solution affinity, Gyrolab. On the procedure: (§1) Fitting of the dilution series was done using Gyrolab Analysis software, where KD- and receptor-controlled curves were analyzed to determine the KD value.

In assay [1] the target is T2, cyno TNF-α (cynomolgus monkey, UniProt P79337 77-233).
T2 construct: also called cynomolgus monkey TNF-α
Kind of assay: in-solution affinity, Gyrolab. Here is the method:
as §1

The target in the next assay is T3, mouse serum albumin (mouse, UniProt P07724 25-608).
T3 construct: also called mouse SA
Put plainly: in-solution affinity, Gyrolab. On the procedure:
as §1

Assay [2] has as its target T4, human TNF-α (human, UniProt P01375 77-233).
T4 construct: also called hTNF-α; recombinant soluble hTNF-α
Put plainly: in-solution affinity, Gyrolab. On the procedure: as §1

The target in another assay is T5, cyno serum albumin (cynomolgus monkey, UniProt A2V9Z4 25-608).
T5 construct: also called cyno SA
Kind of assay: in-solution affinity, Gyrolab. On the procedure:
as §1

The target of assay [3] is T6, human IL-6 (human, UniProt P05231 30-212).
T6 construct: also called hIL-6
Kind of assay: in-solution affinity, Gyrolab. Here is the method:
as §1

The target of assay [4] is T2, cyno TNF-α. Put plainly: cell-based or functional assay.
The target of assay [5] is T4, human TNF-α. Put plainly: cell-based or functional assay.
Assay [6] has as its target T7, cyno IL-6 (cynomolgus monkey, UniProt P79341 28-212, limits assumed).
T7 sequence (looked up): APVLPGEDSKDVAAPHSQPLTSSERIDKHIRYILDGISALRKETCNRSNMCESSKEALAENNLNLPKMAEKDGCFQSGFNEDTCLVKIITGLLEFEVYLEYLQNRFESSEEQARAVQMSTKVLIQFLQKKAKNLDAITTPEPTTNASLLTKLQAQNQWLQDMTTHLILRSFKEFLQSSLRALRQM
Kind of assay: cell-based or functional assay.

Assay [7] addresses T2, cyno TNF-α. Kind of assay: cell-based or functional assay. This is another data set of the same source.
Assay [8] concerns the target T4, human TNF-α. Kind of assay: cell-based or functional assay. The source holds these as a separate data set.
In assay [9] the target is T7, cyno IL-6. Kind of assay: cell-based or functional assay. The source holds these as a separate data set.
Assay [10] deals with T6, human IL-6. Put plainly: cell-based or functional assay.
Another assay addresses T8, human IL23 (human, UniProt Q9NPF7 20-189; P29460 23-328).
T8 sequence (looked up) 1: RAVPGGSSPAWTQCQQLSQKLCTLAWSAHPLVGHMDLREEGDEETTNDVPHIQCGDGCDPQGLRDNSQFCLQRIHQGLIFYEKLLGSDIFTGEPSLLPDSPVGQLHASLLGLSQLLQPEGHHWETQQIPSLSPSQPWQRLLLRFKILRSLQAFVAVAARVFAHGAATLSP
T8 sequence (looked up) 2: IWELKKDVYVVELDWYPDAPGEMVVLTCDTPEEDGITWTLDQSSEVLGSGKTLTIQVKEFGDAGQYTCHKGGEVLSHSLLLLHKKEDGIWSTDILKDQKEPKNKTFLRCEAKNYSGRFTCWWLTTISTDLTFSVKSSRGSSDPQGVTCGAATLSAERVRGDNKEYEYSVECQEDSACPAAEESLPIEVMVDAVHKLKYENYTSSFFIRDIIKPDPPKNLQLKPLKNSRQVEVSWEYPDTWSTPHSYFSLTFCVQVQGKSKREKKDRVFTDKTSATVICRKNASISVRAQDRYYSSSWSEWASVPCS
Kind of assay: SPR (ProteOn XPR36), target immobilized.

In a further assay the target is T9, human TL-1A (human, UniProt O95150 72-251).
T9 construct: also called hTL-1A
T9 sequence (looked up): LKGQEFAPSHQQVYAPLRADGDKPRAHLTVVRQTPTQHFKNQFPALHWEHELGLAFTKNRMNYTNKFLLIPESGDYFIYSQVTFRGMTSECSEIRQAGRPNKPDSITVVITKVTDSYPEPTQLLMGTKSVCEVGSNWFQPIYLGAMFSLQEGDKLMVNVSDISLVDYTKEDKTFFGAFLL
Put plainly: SPR (ProteOn XPR36), target immobilized.

The next assay deals with T10, human CNTF (human, UniProt P26441 2-200).
T10 construct: also called ciliary neurotrophic factor
T10 sequence (looked up): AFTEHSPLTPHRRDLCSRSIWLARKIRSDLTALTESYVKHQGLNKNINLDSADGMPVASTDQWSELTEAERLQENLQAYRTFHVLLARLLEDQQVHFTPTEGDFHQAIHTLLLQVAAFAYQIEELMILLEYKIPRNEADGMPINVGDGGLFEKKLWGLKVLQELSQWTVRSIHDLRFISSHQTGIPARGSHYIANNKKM
Kind of assay: SPR (ProteOn XPR36), target immobilized.

The target of the next assay is T11, human RANKL (human, UniProt O14788 140-317, limits assumed).
T11 construct: also called hRANKL
T11 sequence (looked up): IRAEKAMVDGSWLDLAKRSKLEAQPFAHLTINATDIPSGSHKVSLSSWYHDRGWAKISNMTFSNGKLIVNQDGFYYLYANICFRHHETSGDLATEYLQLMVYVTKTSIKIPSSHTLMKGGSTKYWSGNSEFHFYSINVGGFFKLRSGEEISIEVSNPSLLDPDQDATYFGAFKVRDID
Put plainly: SPR (ProteOn XPR36), target immobilized.

Assay [11] addresses T12, human membrane TNFα expressed on HEK293H cells (human, UniProt P01375 1-233).
T12 construct: whole, on cells; also called membrane expressed TNFα
Put plainly: flow cytometry, HEK293H cells expressing human membrane TNFα, with 30 µM HSA, 24 h. Here is the method:
Briefly, cells were fixed with 4% paraformaldehyde and 0.1% glutaraldehyde in PBS (to increase detection of membrane bound TNFα). […] Cells were washed 3 times and subsequently incubated with an anti-VHH mAb (ABH00119) for 30 min at 4° C., washed again, and incubated for 30 min at 4° C. with a goat anti-mouse or anti-human PE labeled antibody. Samples were washed and resuspended in FACS Buffer (D-PBS with 10% FBS and 0.05% sodium azide supplemented with 5 nM TOPRO3). Cell suspensions were then analyzed on an iQuescreener. EC50 values were calculated using GraphPad Prism.
For orientation: In flow cytometry, cells or beads pass a laser one at a time.

T2 sequence (P79337 77-233 limits assumed): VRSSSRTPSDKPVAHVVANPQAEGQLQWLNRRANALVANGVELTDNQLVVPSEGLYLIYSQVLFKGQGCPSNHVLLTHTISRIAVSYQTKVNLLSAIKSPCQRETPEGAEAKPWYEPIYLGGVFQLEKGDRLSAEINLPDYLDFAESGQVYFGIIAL
T5 sequence (A2V9Z4 25-608 limits assumed): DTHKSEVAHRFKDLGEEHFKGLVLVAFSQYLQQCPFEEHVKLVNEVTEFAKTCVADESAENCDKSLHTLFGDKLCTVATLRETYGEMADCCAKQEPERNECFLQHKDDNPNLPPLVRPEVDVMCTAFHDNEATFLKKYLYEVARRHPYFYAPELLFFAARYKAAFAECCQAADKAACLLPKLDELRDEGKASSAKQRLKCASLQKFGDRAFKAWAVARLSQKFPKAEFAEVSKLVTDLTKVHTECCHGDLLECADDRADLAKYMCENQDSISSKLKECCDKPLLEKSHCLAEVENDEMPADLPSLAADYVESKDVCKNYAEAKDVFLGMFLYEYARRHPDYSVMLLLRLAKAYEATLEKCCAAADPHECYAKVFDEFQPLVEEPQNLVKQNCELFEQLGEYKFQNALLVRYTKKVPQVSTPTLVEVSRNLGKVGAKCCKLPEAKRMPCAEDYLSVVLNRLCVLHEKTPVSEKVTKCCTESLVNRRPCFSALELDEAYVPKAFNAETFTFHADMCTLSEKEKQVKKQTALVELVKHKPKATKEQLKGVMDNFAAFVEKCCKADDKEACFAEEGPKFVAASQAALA
T1 sequence (P02768 25-609 limits assumed): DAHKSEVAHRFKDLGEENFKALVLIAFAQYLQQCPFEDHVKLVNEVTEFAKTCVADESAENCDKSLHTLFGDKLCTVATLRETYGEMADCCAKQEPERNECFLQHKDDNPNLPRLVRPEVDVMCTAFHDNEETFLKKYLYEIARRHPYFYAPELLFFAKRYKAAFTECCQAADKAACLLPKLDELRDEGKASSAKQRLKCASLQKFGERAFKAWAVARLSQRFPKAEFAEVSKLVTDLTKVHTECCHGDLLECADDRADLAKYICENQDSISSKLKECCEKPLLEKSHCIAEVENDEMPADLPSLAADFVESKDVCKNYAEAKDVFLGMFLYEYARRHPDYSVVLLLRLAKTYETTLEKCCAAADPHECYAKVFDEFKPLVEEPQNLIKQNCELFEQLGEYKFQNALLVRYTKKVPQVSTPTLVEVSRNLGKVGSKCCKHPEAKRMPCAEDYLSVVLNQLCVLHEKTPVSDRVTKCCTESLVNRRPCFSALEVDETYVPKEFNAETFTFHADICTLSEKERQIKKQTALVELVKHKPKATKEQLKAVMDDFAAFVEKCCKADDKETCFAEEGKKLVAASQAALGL
T4 sequence (P01375 77-233 limits assumed): as the sequence (P79337 77-233 limits assumed) above, with V37L, T44R, N72T, L138R counted along it
T12 sequence (P01375 whole entry): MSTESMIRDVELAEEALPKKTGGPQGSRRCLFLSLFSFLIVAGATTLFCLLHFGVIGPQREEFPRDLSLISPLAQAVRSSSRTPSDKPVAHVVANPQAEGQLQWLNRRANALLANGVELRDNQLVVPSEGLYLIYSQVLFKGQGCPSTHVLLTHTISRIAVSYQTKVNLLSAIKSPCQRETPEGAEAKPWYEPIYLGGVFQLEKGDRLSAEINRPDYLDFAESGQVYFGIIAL

B1: F027201062 (bispecific antibody)
chain: DVQLVESGGGVVQPGGSLRLSCAASGRTFSNYAMAWFRQAPGKEREFVAVISYAGGRTYYADSVKGRFTISRDNAKNTVYLQMNSLRPEDTALYYCAAVDSPLIATHPRGYDYWGQGTLVTVSSGGGGSGGGSEVQLVESGGGVVQPGGSLRLSCAASGFTFRSFGMSWVRQAPGKGPEWVSSISGSGSDTLYADSVKGRFTISRDNSKNTLYLQMNSLRPEDTALYYCTIGGSLSRSSQGTLVTVSSGGGGSGGGSEVQLVESGGGVVQPGGSLRLSCAASGFTLAYYAIGWFRQAPGKEREGVSCISGSVGTTYYADSVKGRFTISRDNAKNTVYLQMNSLRPEDTALYYCVRSSWFDCGVQGRDLGNEYDYRGQGTLVTVSSGGGGSGGGSEVQLVESGGGVVQPGGSLRLSCTASGFTFSTADMGWFRQAPGKGREFVARISGIDGTTYYDEPVKGRFTISRDNSKNTVYLQMNSLRPEDTALYYCRSPRYADQWSAYDYWGQGTLVKVSSA
notes: anti-IL-6 (17C04, 6B12), anti-HSA (ALB23002), anti-TNF-α (6C11), C-terminal alanine; produced in Pichia pastoris; also called ISVD construct F027201062; Nanobody F027201062
For B1, the Kd is 7600 pM and 6400 pM and 6200 pM with human serum albumin; 53.8 pM and 23.7 pM and 25.9 pM in the assay with cyno TNF-α [1]; 58500 pM and 62200 pM and 56000 pM in the assay with mouse serum albumin; 5.7 pM and 5.2 pM and 9.9 pM with human TNF-α [2]; 6700 pM and 4900 pM and 6100 pM in the assay with cyno serum albumin; 7.3 pM and 5.3 pM and 3 pM with human IL-6 [3]. The “IC50, HEK293_NFκB-NLucP reporter assay” value with cyno TNF-α [4] is 160 pM and 83.7 pM and 230 pM; with human TNF-α [5] it was 75.7 pM and 25.7 pM and 58.6 pM. Besides, the “IC50, IL-6 induced TF-1 proliferation” value with cyno IL-6 [6] is 64.6 pM and 59.2 pM and 43.4 pM. Further, the “cyno TNF-α NFkb assay (IC50, pM)” value with cyno TNF-α [7] worked out at 193 pM. Also, in the assay with human TNF-α [8], the “Ratio IC50 reference anti-TNF-α mAb/Nb” value came to 0.67 ratio. For the same molecule, the “hTNF-α Nfkb assay (IC50, pM)” value in the assay with human TNF-α [8] came out at 98 pM. Besides, the “cyno IL-6 TF1 proliferation assay (IC50, pM)” value in the assay with cyno IL-6 [9] worked out at 65 pM. The “Ratio IC50 reference anti-IL-6 mAb1/Nb” value with human IL-6 [10] worked out at 2.4 ratio. The “hIL-6 TF1 proliferation assay (IC50, pM)” value with human IL-6 [10] stood at 134 pM. The binding result in the assay with human IL23, in the assay with human TL-1A, with human CNTF and in the assay with human RANKL was “no binding (tested: 300 nM)” in each case. In assay [11], the concentration giving a half-maximal response (EC50) was 310 pM and 290 pM and 360 pM.

Usually Kd stands for the free concentration of one partner at which half of the binding sites on the other are occupied at equilibrium, for simple one-to-one binding. A high value points to lower affinity. In general, EC50 refers to the midpoint of the concentration-response curve. Lower therefore signals greater potency.
